Values of other authors as cited in patent US20200069786A1, “COMPOSITION AND PROCESS FOR PREPARING VACCINE” (TREOS BIO ZRT., priority 2018, published 2020).
Where two headings read alike, the source gives them in different places.

B1: ZNF645 (protein, UniProt Q8N7E2 1-425, looked up)
E3 ubiquitin-protein ligase …: MNKMPAGEQECEYNKEGKYYSKGVKLVRKKKKIPGYRWGDIKINIIGEKDDLPIHFCDKCDLPIKIYGRIIPCKHAFCYHCANLYDKVGYKVCPRCRYPVLRIEAHKRGSVFMCSIVQQCKRTYLSQKSLQAHIKRRHKRARKQVTSASLEKVRPHIAPPQTEISDIPKRLQDRDHLSYIPPEQHTMVSLPSVQHMLQEQHNQPHKDIQAPPPELSLSLPFPIQWETVSIFTRKHGNLTVDHIQNNSDSGAKKPTPPDYYPECQSQPAVSSPHHIIPQKQHYAPPPSPSSPVNHQMPYPPQDVVTPNSVRSQVPALTTTYDPSSGYIIVKVPPDMNSPPLRAPQSQNGNPSASEFASHHYNLNILPQFTENQETLSPQFTQTDAMDHRRWPAWKRLSPCPPTRSPPPSTLHGRSHHSHQRRHRRY
B2: FBXO39 (protein, UniProt Q8N4B4 1-442, looked up)
F-box only protein 39: MDEESELIQPQDQSCWAFLPDLCLCRVFWWLGDRDRSRAALVCRKWNQMMYSAELWRYRTITFSGRPSRVHASEVESAVWYVKKFGRYLEHLEVKFMNPYNAVLTKKFQVTMRGLLSCLSKSNNRLKSLSIQYLELDRLVWRNSIRSSFISSLSFFLKKMGKRLDYLNLKGARLTVEQGCQILDSLSYMRNENVISELNIEDYFSHHLAVYNSPQFKKTMSTFHNLVSLNLNYNCISDELLENLCENASTLRTINIKCHVHDPHGQVIWGMSWAKLARQATNLKVNFFFERIMKYERLARILLQEIPIRSISLRSCYFSDPDCSMRPTLIDLLPTFRHTLQKLTCEFNNNHESLDEELHLLIISCRKLFYFKIWAFLDVSFVERILKSQKERQCALRVFKARIYTNRYETNEEDKTLQEIYRKYRKLIESELSYFVIVYSVM
B3: CEP55 (protein, UniProt Q53EZ4 1-464, looked up)
Centrosomal protein of 55 kDa: MSSRSTKDLIKSKWGSKPSNSKSETTLEKLKGEIAHLKTSVDEITSGKGKLTDKERHRLLEKIRVLEAEKEKNAYQLTEKDKEIQRLRDQLKARYSTTTLLEQLEETTREGERREQVLKALSEEKDVLKQQLSAATSRIAELESKTNTLRLSQTVAPNCFNSSINNIHEMEIQLKDALEKNQQWLVYDQQREVYVKGLLAKIFELEKKTETAAHSLPQQTKKPESEGYLQEEKQKCYNDLLASAKKDLEVERQTITQLSFELSEFRRKYEETQKEVHNLNQLLYSQRRADVQHLEDDRHKTEKIQKLREENDIARGKLEEEKKRSEELLSQVQFLYTSLLKQQEEQTRVALLEQQMQACTLDFENEKLDRQHVQHQLHVILKELRKARNQITQLESLKQLHEFAITEPLVTFQGETENREKVAASPKSPTAALNESLVECPKCNIQYPATEHRDLLVHVEYCSK
B4: FSIP1 (protein, UniProt Q8NA03 1-581, looked up)
Fibrous sheath-interacting …: MDIIKGNLDGISKPASNSRIRPGSRSSNASLEVLSTEPGSFKVDTASNLNSGKEDHSESSNTENRRTSNDDKQESCSEKIKLAEEGSDEDLDLVQHQIISECSDEPKLKELDSQLQDAIQKMKKLDKILAKKQRREKEIKKQGLEMRIKLWEEIKSAKYSEAWQSKEEMENTKKFLSLTAVSEETVGPSHEEEDTFSSVFHTQIPPEEYEMQMQKLNKDFTCDVERNESLIKSGKKPFSNTEKIELRGKHNQDFIKRNIELAKESRNPVVMVDREKKRLVELLKDLDEKDSGLSSSEGDQSGWVVPVKGYELAVTQHQQLAEIDIKLQELSAASPTISSFSPRLENRNNQKPDRDGERNMEVTPGEKILRNTKEQRDLHNRLREIDEKLKMMKENVLESTSCLSEEQLKCLLDECILKQKSIIKLSSERKKEDIEDVTPVFPQLSRSIISKLLNESETKVQKTEVEDADMLESEECEASKGYYLTKALTGHNMSEALVTEAENMKCLQFSKDVIISDTKDYFMSKTLGIGRLKRPSFLDDPLYGISVSLSSEDQHLKLSSPENTIADEQETKDAAEECKEP
B5: GASZ (protein, UniProt Q8WWH4 1-475, looked up)
Ankyrin repeat, SAM and basic …: MAASALRGLPVAGGGESSESEDDGWEIGYLDRTSQKLKRLLPIEEKKEKFKKAMTIGDVSLVQELLDSGISVDSNFQYGWTPLMYAASVANAELVRVLLDRGANASFEKDKQSILITACSAHGSEEQILKCVELLLSRNADPNVACRRLMTPIMYAARDGHTQVVALLVAHGAEVNTQDENGYTALTWAARQGHKNIVLKLLELGANKMLQTKDGKMPSEIAKRNKHHEIFNLLSFTLNPLEGKLQQLTKEDTICKILTTDSDREKDHIFSSYTAFGDLEVFLHGLGLEHMTDLLKERDITLRHLLTMREDEFTKNGITSKDQQKILAALKELQVEEIQFGELSEETKLEISGDEFLNFLLKLNKQCGHLITAVQNVITELPVNSQKITLEWASPQNFTSVCEELVNNVEDLSEKVCKLKDLIQKLQNERENDPTHIQLREEVSTWNSRILKRTAITICGFGFLLFICKLTFQRK
B6: DKKL1 (protein, UniProt Q9UK85 31-242, looked up)
Dickkopf-like protein 1: APIHDADAQESSLGLTGLQSLLQGFSRLFLKGNLLRGIDSLFSAPMDFRGLPGNYHKEENQEHQLGNNTLSSHLQIDKMTDNKTGEVLISENVVASIQPAEGSFEGDLKVPRMEEKEALVPIQKATDSFHTELHPRVAFWIIKLPRRRSHQDALEGGHWLSEKRHRLQAIRDGLRKGTHKDVLEEGTESSSHSRLSPRKTHLLYILRPSRQL
B7: NLRP4 (protein, UniProt Q96MN2 1-994, looked up)
NACHT, LRR and PYD …: MAASFFSDFGLMWYLEELKKEEFRKFKEHLKQMTLQLELKQIPWTEVKKASREELANLLIKHYEEQQAWNITLRIFQKMDRKDLCMKVMRERTGYTKTYQAHAKQKFSRLWSSKSVTEIHLYFEEEVKQEECDHLDRLFAPKEAGKQPRTVIIQGPQGIGKTTLLMKLMMAWSDNKIFRDRFLYTFYFCCRELRELPPTSLADLISREWPDPAAPITEIVSQPERLLFVIDSFEELQGGLNEPDSDLCGDLMEKRPVQVLLSSLLRKKMLPEASLLIAIKPVCPKELRDQVTISEIYQPRGFNESDRLVYFCCFFKDPKRAMEAFNLVRESEQLFSICQIPLLCWILCTSLKQEMQKGKDLALTCQSTTSVYSSFVFNLFTPEGAEGPTPQTQHQLKALCSLAAEGMWTDTFEFCEDDLRRNGVVDADIPALLGTKILLKYGERESSYVFLHVCIQEFCAALFYLLKSHLDHPHPAVRCVQELLVANFEKARRAHWIFLGCFLTGLLNKKEQEKLDAFFGFQLSQEIKQQIHQCLKSLGERGNPQGQVDSLAIFYCLFEMQDPAFVKQAVNLLQEANFHIIDNVDLVVSAYCLKYCSSLRKLCFSVQNVFKKEDEHSSTSDYSLICWHHICSVLTTSGHLRELQVQDSTLSESTFVTWCNQLRHPSCRLQKLGINNVSFSGQSVLLFEVLFYQPDLKYLSFTLTKLSRDDIRSLCDALNYPAGNVKELALVNCHLSPIDCEVLAGLLTNNKKLTYLNVSCNQLDTGVPLLCEALCSPDTVLVYLMLAFCHLSEQCCEYISEMLLRNKSVRYLDLSANVLKDEGLKTLCEALKHPDCCLDSLCLVKCFITAAGCEDLASALISNQNLKILQIGCNEIGDVGVQLLCRALTHTDCRLEILGLEECGLTSTCCKDLASVLTCSKTLQQLNLTLNTLDHTGVVVLCEALRHPECALQVLGLRKTDFDEETQALLTAEEERNPNLTITDDCDTITRVEI
B8: CT46 (protein, UniProt Q86X24 1-394, looked up)
HORMA domain-containing …: MATAQLQRTPMSALVFPNKISTEHQSLVLVKRLLAVSVSCITYLRGIFPECAYGTRYLDDLCVKILREDKNCPGSTQLVKWMLGCYDALQKKYLRMVVLAVYTNPEDPQTISECYQFKFKYTNNGPLMDFISKNQSNESSMLSTDTKKASILLIRKIYILMQNLGPLPNDVCLTMKLFYYDEVTPPDYQPPGFKDGDCEGVIFEGEPMYLNVGEVSTPFHIFKVKVTTERERMENIDSTILSPKQIKTPFQKILRDKDVEDEQEHYTSDDLDIETKMEEQEKNPASSELEEPSLVCEEDEIMRSKESPDLSISHSQVEQLVNKTSELDMSESKTRSGKVFQNKMANGNQPVKSSKENRKRSQHESGRIVLHHFDSSSQESVPKRRKFSEPKEHI
B9: SPAG8 (protein, UniProt Q99932 1-485, looked up)
Sperm-associated antigen 8: METNESTEGSRSRSRSLDIQPSSEGLGPTSEPFPSSDDSPRSALAAATAAAAAAASAAAATAAFTTAKAAALSTKTPAPCSEFMEPSSDPSLLGEPCAGPGFTHNIAHGSLGFEPVYVSCIAQDTCTTTDHSSNPGPVPGSSSGPVLGSSSGAGHGSGSGSGPGCGSVPGSGSGPGPGSGPGSGPGHGSGSHPGPASGPGPDTGPDSELSPCIPPGFRNLVADRVPNYTSWSQHCPWEPQKQPPWEFLQVLEPGARGLWKPPDIKGKLMVCYETLPRGQCLLYNWEEERATNHLDQVPSMQDGSESFFFRHGHRGLLTMQLKSPMPSSTTQKDSYQPPGNVYWPLRGKREAMLEMLLQHQICKEVQAEQEPTRKLFEVESVTHHDYRMELAQAGTPAPTKPHDYRQEQPETFWIQRAPQLPGVSNIRTLDTPFRKNCSFSTPVPLSLGKLLPYEPENYPYQLGEISSLPCPGGRLGGGGGRMTPF
B10: HSPB9 (protein, UniProt Q9BQS6 1-159, looked up)
Heat shock protein beta-9: MQRVGNTFSNESRVASRCPSVGLAERNRVATMPVRLLRDSPAAQEDNDHARDGFQMKLDAHGFAPEELVVQVDGQWLMVTGQQQLDVRDPERVSYRMSQKVHRKMLPSNLSPTAMTCCLTPSGQLWVRGQCVALALPEAQTGPSPRLGSLGSKASNLTR

Test system: TSA
[1] = TSA expression rate in GASTRIC cancer
[2] = TSA expression rate in LUNG cancer
[3] = TSA expression rate in Cervical cancer
[4] = TSA expression rate in MELANOMA
[5] = TSA expression rate in Esophageal

| Molecule | TSA Expression Rate (ER) (LUNG) [%] | TSA Expression Rate (ER) (BREAST) [%] | Expression Rate (ER) % (TSA expression rate in CRC) [%] | also measured |
| --- | --- | --- | --- | --- |
| B1 | 68 |  |  |  |
| B2 |  | 38 | 39 | Expression Rate (ER) % [1]: 4%; Expression Rate (ER) % [2]: 0% |
| B3 | 94 |  |  |  |
| B4 |  | 42 |  |  |
| B5 | 29 |  | 22 | TSA Expression Rate (ER) (THYROID): 13%; Expression Rate (ER) % [3]: 50%; Expression Rate (ER) % [1]: 0%; Expression Rate (ER) % [4]: 17% |
| B6 |  | 20 | 0 | TSA Expression Rate (ER) (OVARIAN): 57%; TSA Expression Rate (ER) (THYROID): 0%; Expression Rate (ER) % [3]: 33%; Expression Rate (ER) % (TSA expression rate in Kidney): 0%; Expression Rate (ER) % [2]: 12%; Expression Rate (ER) % [4]: 25%; Expression Rate (ER) % (TSA expression rate in PROSTATE cancer): 13% |
| B7 | 38 |  |  |  |
| B8 | 47 | 29 | 7 | Expression Rate (ER) % (TSA expression rate in BLADDER cancer): 20%; Expression Rate (ER) % [5]: 35% |
| B9 | 43 | 29 |  |  |
| B10 | 40 |  | 40 | Expression Rate (ER) % [5]: 20% |
